Some targets named below: EphA4(h) (Homo sapiens, UniProt P54764); SAPK2a(T106M)(h) (Homo sapiens, UniProt Q16539, T106M); PTK5(h) (Homo sapiens, UniProt P42685); Ret(h) (Homo sapiens, UniProt P07949); p70S6K(h) (Homo sapiens, UniProt P23443); ROCK-I(h) (Homo sapiens, UniProt Q13464); Abl (Q252H) (h) (Homo sapiens, UniProt P00519, Q252H); CHK2(R145W)(h) (Homo sapiens, UniProt O96017, R145W); CLK3(h) (Homo sapiens, UniProt P49761); TLK2(h) (Homo sapiens, UniProt Q86UE8); PDGFRα(h) (Homo sapiens, UniProt P16234).

Assay in all cases: Kinase Profiling Assay
Common to all, as to type: biochemical
Settings in all cases: 100 μM

For the next assay, the target named is T1, NEK11(h) (Homo sapiens, UniProt Q8NG66).
T1 sequence (Q8NG66 1-645): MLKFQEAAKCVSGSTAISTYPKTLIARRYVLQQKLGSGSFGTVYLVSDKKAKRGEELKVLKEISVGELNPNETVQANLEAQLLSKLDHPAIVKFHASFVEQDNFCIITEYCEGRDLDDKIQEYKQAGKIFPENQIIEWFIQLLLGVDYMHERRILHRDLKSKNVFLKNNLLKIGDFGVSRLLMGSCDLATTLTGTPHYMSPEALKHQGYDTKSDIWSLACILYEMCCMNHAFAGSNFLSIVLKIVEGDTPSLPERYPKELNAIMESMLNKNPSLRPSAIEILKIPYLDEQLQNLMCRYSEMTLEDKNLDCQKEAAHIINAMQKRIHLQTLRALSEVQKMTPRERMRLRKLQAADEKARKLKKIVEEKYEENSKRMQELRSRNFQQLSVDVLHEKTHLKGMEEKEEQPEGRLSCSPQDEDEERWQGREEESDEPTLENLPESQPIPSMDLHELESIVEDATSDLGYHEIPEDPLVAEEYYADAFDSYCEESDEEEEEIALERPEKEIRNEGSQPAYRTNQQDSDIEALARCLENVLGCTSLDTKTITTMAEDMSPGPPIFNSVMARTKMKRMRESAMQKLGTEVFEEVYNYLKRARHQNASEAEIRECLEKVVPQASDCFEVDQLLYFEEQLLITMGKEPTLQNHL

For the next assay, the target named is T2, EphA8(h) (Homo sapiens, UniProt P29322).
T2 sequence (P29322 28-1005): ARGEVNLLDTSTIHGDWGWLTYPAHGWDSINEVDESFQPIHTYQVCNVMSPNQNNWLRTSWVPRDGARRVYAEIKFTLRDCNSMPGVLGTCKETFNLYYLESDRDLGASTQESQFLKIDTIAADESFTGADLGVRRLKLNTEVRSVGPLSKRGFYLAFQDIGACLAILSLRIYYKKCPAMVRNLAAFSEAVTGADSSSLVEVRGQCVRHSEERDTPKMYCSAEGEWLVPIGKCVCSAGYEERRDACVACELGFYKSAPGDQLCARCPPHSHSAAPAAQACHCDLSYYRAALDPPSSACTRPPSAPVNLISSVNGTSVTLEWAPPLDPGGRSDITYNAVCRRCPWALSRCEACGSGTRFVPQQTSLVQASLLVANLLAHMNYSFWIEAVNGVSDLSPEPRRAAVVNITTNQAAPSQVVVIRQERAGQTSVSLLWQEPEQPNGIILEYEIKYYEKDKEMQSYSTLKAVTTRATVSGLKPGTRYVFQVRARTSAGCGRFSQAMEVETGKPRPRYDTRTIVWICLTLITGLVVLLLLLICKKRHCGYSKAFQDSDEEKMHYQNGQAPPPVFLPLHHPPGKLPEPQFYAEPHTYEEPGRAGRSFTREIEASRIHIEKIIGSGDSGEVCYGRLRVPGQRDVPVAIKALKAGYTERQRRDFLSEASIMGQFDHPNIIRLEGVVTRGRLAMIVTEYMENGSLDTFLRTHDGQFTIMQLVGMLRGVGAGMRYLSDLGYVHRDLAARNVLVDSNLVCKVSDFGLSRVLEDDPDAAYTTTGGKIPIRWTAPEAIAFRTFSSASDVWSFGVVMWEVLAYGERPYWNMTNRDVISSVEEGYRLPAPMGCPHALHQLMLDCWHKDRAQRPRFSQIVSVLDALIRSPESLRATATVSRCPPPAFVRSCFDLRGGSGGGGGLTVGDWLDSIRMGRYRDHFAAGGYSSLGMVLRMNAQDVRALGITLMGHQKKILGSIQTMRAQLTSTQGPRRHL

The target in the next assay is T3, IRAK4(h) (Homo sapiens, UniProt Q9NWZ3).
T3 sequence (Q9NWZ3 1-460): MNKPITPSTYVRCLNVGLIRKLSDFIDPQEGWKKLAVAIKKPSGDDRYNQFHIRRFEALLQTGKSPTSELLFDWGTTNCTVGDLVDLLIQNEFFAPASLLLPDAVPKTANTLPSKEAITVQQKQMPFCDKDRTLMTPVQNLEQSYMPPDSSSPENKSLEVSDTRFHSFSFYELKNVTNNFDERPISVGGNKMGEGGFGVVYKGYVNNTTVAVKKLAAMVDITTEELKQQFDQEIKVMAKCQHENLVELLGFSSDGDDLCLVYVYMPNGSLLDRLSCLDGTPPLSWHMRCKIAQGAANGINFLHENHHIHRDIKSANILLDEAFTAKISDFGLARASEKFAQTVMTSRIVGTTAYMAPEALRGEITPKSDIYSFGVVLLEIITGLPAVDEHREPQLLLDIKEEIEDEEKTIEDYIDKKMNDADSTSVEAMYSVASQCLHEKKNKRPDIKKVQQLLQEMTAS

SAPK2a(T106M)(h), sequence (Q16539 whole entry T106M): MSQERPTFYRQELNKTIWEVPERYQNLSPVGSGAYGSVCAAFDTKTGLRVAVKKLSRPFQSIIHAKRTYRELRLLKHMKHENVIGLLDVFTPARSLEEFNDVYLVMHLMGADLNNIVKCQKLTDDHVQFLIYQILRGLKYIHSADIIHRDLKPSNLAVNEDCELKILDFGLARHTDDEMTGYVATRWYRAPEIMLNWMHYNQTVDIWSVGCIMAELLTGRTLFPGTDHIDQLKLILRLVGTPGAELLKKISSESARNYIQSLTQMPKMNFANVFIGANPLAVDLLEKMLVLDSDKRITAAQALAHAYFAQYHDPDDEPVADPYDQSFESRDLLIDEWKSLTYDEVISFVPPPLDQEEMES
CHK2(R145W)(h), sequence (O96017 whole entry R145W): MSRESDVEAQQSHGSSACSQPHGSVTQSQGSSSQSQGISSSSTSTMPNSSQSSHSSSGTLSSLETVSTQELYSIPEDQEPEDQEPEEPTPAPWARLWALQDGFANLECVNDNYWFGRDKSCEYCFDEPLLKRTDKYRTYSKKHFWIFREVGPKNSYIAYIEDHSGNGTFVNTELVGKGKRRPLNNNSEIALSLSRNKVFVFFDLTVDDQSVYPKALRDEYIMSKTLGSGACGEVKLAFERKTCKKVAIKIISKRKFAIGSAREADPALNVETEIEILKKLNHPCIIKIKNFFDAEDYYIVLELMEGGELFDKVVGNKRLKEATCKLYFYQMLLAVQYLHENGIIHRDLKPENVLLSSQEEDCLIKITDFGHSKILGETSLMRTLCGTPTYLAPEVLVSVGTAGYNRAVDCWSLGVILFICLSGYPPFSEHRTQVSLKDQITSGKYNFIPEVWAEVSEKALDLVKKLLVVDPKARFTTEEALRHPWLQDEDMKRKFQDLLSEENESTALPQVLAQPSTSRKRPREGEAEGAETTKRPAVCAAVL
EphA4(h), sequence (P54764 20-986): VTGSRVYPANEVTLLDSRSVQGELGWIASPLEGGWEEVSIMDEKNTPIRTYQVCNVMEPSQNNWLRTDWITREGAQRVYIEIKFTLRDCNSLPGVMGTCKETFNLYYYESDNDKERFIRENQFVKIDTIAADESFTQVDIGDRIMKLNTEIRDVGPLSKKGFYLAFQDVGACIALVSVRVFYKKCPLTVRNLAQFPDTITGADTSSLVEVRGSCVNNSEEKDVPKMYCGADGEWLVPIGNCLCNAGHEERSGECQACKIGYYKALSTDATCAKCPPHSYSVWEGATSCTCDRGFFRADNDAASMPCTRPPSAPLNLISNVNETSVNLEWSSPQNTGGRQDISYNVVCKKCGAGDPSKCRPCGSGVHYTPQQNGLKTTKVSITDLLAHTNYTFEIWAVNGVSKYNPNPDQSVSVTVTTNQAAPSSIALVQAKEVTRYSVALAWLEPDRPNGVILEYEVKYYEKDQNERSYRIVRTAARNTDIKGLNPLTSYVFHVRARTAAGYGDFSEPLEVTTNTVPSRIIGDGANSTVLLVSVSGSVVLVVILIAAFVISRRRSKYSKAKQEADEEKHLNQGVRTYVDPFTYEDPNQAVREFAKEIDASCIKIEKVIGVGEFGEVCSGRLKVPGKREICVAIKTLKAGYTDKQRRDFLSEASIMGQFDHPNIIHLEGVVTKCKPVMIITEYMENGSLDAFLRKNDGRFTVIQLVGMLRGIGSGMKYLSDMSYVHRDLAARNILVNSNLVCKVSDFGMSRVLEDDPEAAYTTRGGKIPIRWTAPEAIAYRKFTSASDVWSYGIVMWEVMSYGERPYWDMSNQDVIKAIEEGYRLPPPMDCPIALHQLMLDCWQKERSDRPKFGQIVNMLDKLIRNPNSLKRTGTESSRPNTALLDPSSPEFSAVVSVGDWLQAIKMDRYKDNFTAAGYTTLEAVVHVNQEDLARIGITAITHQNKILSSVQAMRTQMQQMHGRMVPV
PTK5(h), sequence (P42685 whole entry): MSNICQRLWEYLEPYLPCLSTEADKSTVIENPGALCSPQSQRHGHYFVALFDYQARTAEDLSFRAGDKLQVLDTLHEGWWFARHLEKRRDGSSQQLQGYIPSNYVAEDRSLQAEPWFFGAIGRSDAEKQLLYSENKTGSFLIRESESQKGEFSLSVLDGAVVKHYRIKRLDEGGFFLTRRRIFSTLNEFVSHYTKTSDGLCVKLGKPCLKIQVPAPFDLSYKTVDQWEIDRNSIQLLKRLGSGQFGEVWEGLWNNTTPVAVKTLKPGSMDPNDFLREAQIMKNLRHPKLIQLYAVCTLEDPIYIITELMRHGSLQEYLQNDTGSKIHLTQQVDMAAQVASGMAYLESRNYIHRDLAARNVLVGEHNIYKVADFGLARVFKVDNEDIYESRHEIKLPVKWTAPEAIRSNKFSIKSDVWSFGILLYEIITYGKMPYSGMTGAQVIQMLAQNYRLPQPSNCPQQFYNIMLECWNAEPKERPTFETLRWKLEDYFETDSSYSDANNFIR
CLK3(h), sequence (P49761 whole entry): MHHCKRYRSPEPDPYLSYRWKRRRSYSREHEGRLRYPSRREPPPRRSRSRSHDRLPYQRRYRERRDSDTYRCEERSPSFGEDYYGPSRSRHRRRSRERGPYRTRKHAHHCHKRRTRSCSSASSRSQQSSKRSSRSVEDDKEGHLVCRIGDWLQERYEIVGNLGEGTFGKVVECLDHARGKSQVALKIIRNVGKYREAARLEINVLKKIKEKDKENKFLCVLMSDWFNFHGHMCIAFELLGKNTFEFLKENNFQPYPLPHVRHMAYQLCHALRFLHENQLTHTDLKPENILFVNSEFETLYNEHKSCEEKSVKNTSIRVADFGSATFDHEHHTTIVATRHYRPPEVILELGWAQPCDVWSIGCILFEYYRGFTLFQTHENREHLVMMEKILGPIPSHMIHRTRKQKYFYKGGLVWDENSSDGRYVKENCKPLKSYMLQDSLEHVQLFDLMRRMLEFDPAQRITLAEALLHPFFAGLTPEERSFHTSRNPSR
PDGFRα(h), sequence (P16234 24-1089): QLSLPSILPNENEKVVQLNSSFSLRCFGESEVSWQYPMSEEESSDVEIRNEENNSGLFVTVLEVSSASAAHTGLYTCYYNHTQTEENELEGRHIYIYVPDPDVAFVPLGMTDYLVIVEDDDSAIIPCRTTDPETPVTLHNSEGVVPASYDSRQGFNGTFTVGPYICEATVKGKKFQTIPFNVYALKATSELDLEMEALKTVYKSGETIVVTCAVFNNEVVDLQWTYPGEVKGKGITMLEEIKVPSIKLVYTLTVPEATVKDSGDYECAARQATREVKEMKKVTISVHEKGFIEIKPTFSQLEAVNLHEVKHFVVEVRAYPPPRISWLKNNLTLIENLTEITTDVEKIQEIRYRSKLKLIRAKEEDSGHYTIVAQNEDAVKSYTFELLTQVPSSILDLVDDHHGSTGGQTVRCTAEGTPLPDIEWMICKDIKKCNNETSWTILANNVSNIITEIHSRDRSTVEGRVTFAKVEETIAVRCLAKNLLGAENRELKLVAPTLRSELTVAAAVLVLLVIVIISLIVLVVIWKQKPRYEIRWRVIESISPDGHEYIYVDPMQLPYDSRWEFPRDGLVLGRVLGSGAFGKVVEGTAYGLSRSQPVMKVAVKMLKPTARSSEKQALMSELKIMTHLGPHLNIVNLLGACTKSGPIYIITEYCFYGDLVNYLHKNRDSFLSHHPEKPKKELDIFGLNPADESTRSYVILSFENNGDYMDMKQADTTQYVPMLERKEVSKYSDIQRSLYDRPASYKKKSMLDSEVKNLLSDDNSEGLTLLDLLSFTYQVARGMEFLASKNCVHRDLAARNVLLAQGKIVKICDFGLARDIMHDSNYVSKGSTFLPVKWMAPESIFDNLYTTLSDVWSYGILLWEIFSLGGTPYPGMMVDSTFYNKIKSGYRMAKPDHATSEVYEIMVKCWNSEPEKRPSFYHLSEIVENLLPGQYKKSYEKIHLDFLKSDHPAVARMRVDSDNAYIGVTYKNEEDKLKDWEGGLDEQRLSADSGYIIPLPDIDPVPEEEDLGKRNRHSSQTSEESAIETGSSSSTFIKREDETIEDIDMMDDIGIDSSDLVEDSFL
p70S6K(h), sequence (P23443 whole entry): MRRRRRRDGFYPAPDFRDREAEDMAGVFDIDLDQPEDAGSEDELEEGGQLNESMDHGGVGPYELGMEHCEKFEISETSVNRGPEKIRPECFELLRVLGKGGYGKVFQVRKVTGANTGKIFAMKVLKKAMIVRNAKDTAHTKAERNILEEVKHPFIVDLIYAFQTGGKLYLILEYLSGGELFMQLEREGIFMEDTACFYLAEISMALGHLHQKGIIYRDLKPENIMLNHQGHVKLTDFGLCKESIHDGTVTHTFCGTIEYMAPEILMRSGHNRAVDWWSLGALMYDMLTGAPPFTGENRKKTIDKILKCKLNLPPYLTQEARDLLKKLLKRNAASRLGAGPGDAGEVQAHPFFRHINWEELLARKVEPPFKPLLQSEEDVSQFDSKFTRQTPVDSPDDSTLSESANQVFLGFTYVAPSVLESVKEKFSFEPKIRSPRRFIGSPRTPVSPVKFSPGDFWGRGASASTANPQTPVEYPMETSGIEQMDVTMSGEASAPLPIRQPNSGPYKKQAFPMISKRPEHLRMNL

As to HRRIKAWLKKIKALARQLGVAA [MMI-0500], the “% activity” value with NEK11(h) was 2%; with EphA8(h), 337%; with EphA4(h) it was 48%; in the assay with SAPK2a(T106M)(h), 32%; with PTK5(h), 96%; in the assay with Ret(h), 174%. The “% activity” value in the assay with p70S6K(h) is 3%; in the assay with IRAK4(h), 3%; with ROCK-I(h) it was 17%; with Abl (Q252H) (h) it was 40%; with CHK2(R145W)(h), 3%; with CLK3(h), 76%. Also, the “% activity” value with TLK2(h) was determined as 133%; in the assay with PDGFRα(h), 40%.
As for YARAAARQARAKALNRQLGVA [MMI-0200], the “% activity” value with NEK11(h) came to 95%; in the assay with EphA8(h), 133%; with EphA4(h) it was 127%; with SAPK2a(T106M)(h), 100%; in the assay with PTK5(h), 108%; with Ret(h), 96%. In addition, the “% activity” value with p70S6K(h) came to 84%; in the assay with IRAK4(h), 110%; with CHK2(R145W)(h) it was 81%; with CLK3(h), 76%; in the assay with TLK2(h) it was 129%; with PDGFRα(h) it was 108%.
Take KAFAKLAARLYRKALARQLGVAA [MMI-0400]: the “% activity” value came to 33% with NEK11(h); 146% in the assay with EphA8(h); 65% with EphA4(h); 99% with SAPK2a(T106M)(h); 129% in the assay with PTK5(h); 145% in the assay with Ret(h). For the same sequence, the “% activity” value with p70S6K(h) is recorded as 33%; with IRAK4(h), 59%; in the assay with ROCK-I(h), 73%; with Abl (Q252H) (h), 98%; with CHK2(R145W)(h) it was 31%; with CLK3(h), 84%. Also, the “% activity” value with TLK2(h) is recorded as 151%; with PDGFRα(h) it was 40%.
For FAKLAARLYRKALARQLGVAA [MMI-0300], the “% activity” value worked out at 53% with NEK11(h); 93% with EphA8(h); 88% with EphA4(h); 97% with SAPK2a(T106M)(h); 132% with PTK5(h); 140% with Ret(h). Also, the “% activity” value in the assay with p70S6K(h) stood at 35%; with IRAK4(h), 59%; with ROCK-I(h) it was 79%; with Abl (Q252H) (h), 82%; in the assay with CHK2(R145W)(h) it was 33%; in the assay with CLK3(h), 61%. The “% activity” value with PDGFRα(h) was 65%.

The values above are taken from US20190134153A1, “IMMUNOMODULATORY EFFECT OF INHALED KINASE INHIBITOR PEPTIDES IN LUNG” (MOERAE MATRIX, INC., priority 2017, published 2019).
